The source of these data is paper PMC6640674.

The target of the assay is BPSL1626 (Burkholderia pseudomallei strain K96423) (UniProt Q63UH6). The assay can be described thus: crystal structure.

What is called stoichiometry N is a count of units in the complex or per binding partner.

The substance “BPSL1626 (from UniProt Q63UH6 26-176) (natural protein)” returned a stoichiometry N of 2.
